This data set concerns the molecule itself. As to the kind of experiment: SEC; Superose 12 column, 20 mM sodium phosphate pH 7.9, 100 mM NaCl, 0.5 ml/min; OmpF in amphipol A8-35 at 1:10 (w:w), detergent-free buffer; oligomer: trimer.

One may read the stoichiometry N as the number of molecules, sites or subunits per partner or assembly.

B1: Outer membrane protein F (OmpF) (natural protein, E. coli, UniProt P02931 23-362, looked up)
chain: AEIYNKDGNKVDLYGKAVGLHYFSKGNGENSYGGNGDMTYARLGFKGETQINSDLTGYGQWEYNFQGNNSEGADAQTGNKTRLAFAGLKYADVGSFDYGRNYGVVYDALGYTDMLPEFGGDTAYSDDFFVGRVGGVATYRNSNFFGLVDGLNFAVQYLGKNERDTARRSNGDGVGGSISYEYEGFGIVGAYGAADRTNLQEAQPLGNGKKAEQWATGLKYDANNIYLAANYGETRNATPITNKFTNTSGFANKTQDVLLVAQYQFDFGLRPSIAYTKSKAKDVEGIGDVDLVNYFEVGATYYFNKNMSTYVDYIINQIDSDNKLGVGSDDTVAVGIVYQF
modifications: deuterated (cells grown in 85% D2O minimal medium)
notes: Outer membrane protein F (OmpF), the major porin of the E. coli outer membrane, produced from E. coli BE3000 cells; trimeric, each monomer a 16-stranded beta-barrel; Native protein purified from the outer membrane of strain BE3000; Held in amphipol A8-35 (not a protein) in all experiments; also called dOmpF; deuterated OmpF; source: E. coli BE3000 cells grown in 85% D2O minimal medium, purified …
In the case of B1, the “stoichiometry N” value stood at 3.
